Here are results for 1 molecule from publication PMC4764573, “A deep proteomics perspective on CRM1-mediated nuclear export and nucleocytoplasmic partitioning” (eLife, 2015).

The test has as its target mmCRM1 (mouse CRM1), in solution in the direct binding assay (mouse, UniProt Q6P5F9 1-1071). Kind of test: pull-down; 250 pmoles His14-ZZ-bdSUMO tagged candidate on 20 μl anti-ZZ beads; 300 pmoles mmCRM1 with or without 1500 pmoles RanGTP (hsRanQ69L^5-180) in 500 µl; 3 hr at 4°C; elution by bdSENP1 protease; SDS-PAGE and Coomassie-staining. As to conditions: both partners purified.

Chain of mmCRM1 (mouse CRM1), in solution in the direct binding assay (Q6P5F9 whole entry): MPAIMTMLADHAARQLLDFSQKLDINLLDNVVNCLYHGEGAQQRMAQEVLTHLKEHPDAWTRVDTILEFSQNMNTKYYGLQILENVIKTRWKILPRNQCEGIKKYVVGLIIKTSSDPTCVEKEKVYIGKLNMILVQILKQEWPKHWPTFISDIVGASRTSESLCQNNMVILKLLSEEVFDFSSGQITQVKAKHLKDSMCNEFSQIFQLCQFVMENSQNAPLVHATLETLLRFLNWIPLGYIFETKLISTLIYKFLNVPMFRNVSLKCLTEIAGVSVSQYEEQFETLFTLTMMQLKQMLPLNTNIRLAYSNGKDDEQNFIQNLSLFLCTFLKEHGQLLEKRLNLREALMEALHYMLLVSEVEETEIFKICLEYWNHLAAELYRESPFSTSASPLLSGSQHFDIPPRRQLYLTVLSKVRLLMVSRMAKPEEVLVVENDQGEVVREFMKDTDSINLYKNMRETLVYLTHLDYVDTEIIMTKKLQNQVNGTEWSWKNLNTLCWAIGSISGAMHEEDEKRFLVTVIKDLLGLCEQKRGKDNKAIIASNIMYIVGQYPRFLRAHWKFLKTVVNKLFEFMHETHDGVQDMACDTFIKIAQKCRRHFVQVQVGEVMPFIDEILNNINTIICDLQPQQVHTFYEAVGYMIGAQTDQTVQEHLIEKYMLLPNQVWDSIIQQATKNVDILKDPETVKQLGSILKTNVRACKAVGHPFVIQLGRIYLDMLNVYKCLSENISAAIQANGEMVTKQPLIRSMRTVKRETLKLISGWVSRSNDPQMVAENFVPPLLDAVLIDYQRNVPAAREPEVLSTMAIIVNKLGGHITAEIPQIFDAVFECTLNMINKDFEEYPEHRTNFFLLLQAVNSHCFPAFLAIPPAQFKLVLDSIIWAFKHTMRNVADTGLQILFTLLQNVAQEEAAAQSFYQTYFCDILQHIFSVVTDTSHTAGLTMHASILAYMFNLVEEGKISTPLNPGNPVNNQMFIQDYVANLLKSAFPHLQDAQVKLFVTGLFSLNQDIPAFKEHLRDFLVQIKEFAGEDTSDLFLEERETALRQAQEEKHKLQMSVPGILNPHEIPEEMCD

B1: H14-ZZ-Sumo tagged ARP2/3 1b (natural protein)
chain: not shown
notes: subunit 1b of the ARP2/3 complex, Xenopus; see Supplementary file 6; also called subunit 1b of the ARP2/3 complex; source: E. coli, purified (Ni2+ chelate chromatography, imidazole elution)
Consider B1, for which the binding result is given as “binds”.
